Results from patent US12374423B2, “Systems and methods for MHC class II epitope prediction” (priority 2017, dated 2025).

Tested on: ovarian carcinoma patients
Assay: not given
Conditions: poly-ICLC in combination with a NY-ESO-1 peptide vaccine (in addition to Montanide), phase 1; cited from earlier work

Substance	patients showing induction of CD4+ and CD8+ T cell, as well as antibody responses to the peptide [%]
Polyinosinic-Polycytidylic Acid-poly-L-lysine Carboxymethylcellulose [poly-ICLC]	> 90

Tested on: CD4 T cells
Assay: IFNγ ELISPOT of splenocytes from Listeria-infected mice restimulated with synthetic peptides
Assay type: in vivo, mouse
Conditions: seven days after i.p. Listeria infection; splenocytes restimulated with 100 nM peptide
From the text: FIG. 10—BOTA and MHCII peptidomics accurately predict immunodominance in vivo. […] At day 7, splenocytes were harvested and restimulated with the indicated peptides for quantification of the T cell response by IFNγ ELISPOT. Data represent the mean number of spots per 1×10^5 CD4 T cells±sd for n=6 mice.
Given that MHCII peptidomics and BOTA successfully identified Listeria peptides and features associated with efficient antigen presentation, Applicants sought to measure T cell responses to these epitopes in vivo. To quantify the CD4 T cell response directed to the top eight candidate Listeria epitopes, mice were sacrificed seven days after intraperitoneal (i.p.) infection with Listeria. T cells were restimulated in vitro with synthetic peptides, and IFN-γ responses were enumerated by ELISPOT. […] The remaining four epitopes elicited weaker responses near the limit of detection for ELISPOT (FIG. 10B).
Listeria infection and ELISPOT. L. monocytogenes strain EGDe (ATCC BA-679) was grown to log phase in BHI, washed in PBS, and used to inoculate mice by i.p. injection with a dose of 1×10^4 CFU/200 μl/mouse. Seven days after infection, spleens were harvested, red blood cells were lysed, and single cell suspensions were replated at 2.5×10^5/200 μl/well on 96-well ELISPOT plates (Millipore MAIPS4510) precoated with anti-IFNγ (BD Pharmingen 551881) at a concentration of 5 μg/ml in PBS. Peptides were added at a concentration of 100 nM to restimulate splenocytes overnight. After stimulation, plates were washed, blocked, and incubated with biotinylated anti-IFNγ (BD Pharmingen 551881) at a concentration of 2 μg/ml and streptavidin-AKP (BD Pharmingen 554065) at a dilution of 1:1000. After 60 minutes, plates were washed and developed with 3-amino-9-ethylcarbazole (AEC, Sigma-Aldrich, A6926). IFNγ-secreting cells were scanned and enumerated using an Immunospot Analyzer ELISpot reader (CTL). All samples were run in triplicate. The following peptides were synthesized by New England Peptide: lmo2185_293-312 […] (SEQ ID NO: 14986), lmo0202_189-204 […] (SEQ ID NO: 14981), lmo0135_150-169 […] (SEQ ID NO: 14997), lmo2558_533-553 […] (SEQ ID NO: 14984), lmo2360_289-306 […] (SEQ ID NO: 15009), lmo0186_285-303 […] (SEQ ID NO: 15005), lmo0582a_26-46 […] (SEQ ID NO: 15012), lmo0582b_12-25 […] (SEQ ID NO: 15013). To calculate the frequency of CD4^+ cells in each splenocyte sample from infected mice, an aliquot of cells from each mouse was stained for flow cytometric analysis. 1×10^6 cells were incubated with 2.4G2 Mouse Fc block in PBS/FBS (BD Pharmingen, 553142) for 20 min at 4° C. […] Fluorescently labeled cells were acquired on the FACSVerse flow cytometer (BD Biosciences) and analyzed using FlowJo Analysis Software (Tree Star).

Substance	T cell response (IFN-γ ELISPOT)
ADFRYVFDTAKATAASSYPG (Listeria sp) [SEQ ID NO: 14986, Listeria peptide from lmo2185]	Robust responses
APGQETQHYYGLPVADSAIDR (Listeria sp) [SEQ ID NO: 14984, Listeria peptide from lmo2558 (ami)]	Robust responses
VDDTTVKFTLPTVAPAFENT (Listeria sp) [SEQ ID NO: 14997, Listeria peptide from lmo0135]	Robust responses
WNEKYAQAYPNVSAKI (Listeria sp) [SEQ ID NO: 14981, Listeria peptide from lmo0202 (hly) (LLO)]	Robust responses

Target: T1, MHCII (I-A^b) of murine bone marrow-derived dendritic cells (Mus musculus, UniProt P14434+P14483)
T1 construct: immunoprecipitation of mature peptide-MHCII complexes with monoclonal Y3P antibody; endogenous in cells; host or cells: primary BMDCs from C57/BL6 (WT) mice, exposed to live L. monocytogenes EGDe
T1 sequence (P14434 24-256): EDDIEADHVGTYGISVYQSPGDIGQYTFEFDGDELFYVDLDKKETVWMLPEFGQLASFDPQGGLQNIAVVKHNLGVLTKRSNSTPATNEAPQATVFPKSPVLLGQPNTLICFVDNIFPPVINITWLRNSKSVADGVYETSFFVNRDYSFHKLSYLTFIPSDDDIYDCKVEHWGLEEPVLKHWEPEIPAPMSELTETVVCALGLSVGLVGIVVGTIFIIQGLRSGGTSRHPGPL
T1 sequence (P14483 28-265): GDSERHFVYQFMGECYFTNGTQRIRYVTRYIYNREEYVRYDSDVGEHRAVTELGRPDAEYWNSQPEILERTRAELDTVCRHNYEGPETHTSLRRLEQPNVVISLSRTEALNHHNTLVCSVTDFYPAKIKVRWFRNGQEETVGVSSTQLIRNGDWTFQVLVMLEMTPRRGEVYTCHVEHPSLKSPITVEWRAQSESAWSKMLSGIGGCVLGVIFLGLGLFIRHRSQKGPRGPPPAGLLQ
Assay: MHCII peptidomics of BMDCs exposed to live Listeria (iTRAQ LC-MS/MS of MHCII-associated peptides)
Assay type: cell-based
Conditions: Listeria peptide found by MHCII peptidomics that matches the BOTA prediction
From the text: To validate BOTA, Applicants tested its performance in predicting MHCII-restricted epitopes from Listeria monocytogenes, one of the most common foodborne pathogens associated with a relatively high mortality rate (Scallan et al., 2011). Despite the epidemiological impact of listeriosis, the number of experimentally validated CD4 T cell epitopes encoded within the Listeria genome is limited. Thus, Applicants first sought to identify MHCII-associated peptides in BMDCs exposed to live Listeria by peptidomics. In these experiments, primary BMDCs were exposed to live L. monocytogenes for 10 minutes or 6 hours prior to immunoprecipitation of mature peptide-MHCII complexes with monoclonal Y3P antibody (Janeway et al., 1984). Associated peptides from biological replicates of the 10-minute and 6-hour timepoints were analyzed using mass spectrometry (LC-MS/MS) (FIGS. 9A and B).
Immuno-affinity purification of MHCII complexes. Bone marrow was harvested from C57/BL6 (WT), Atg16l1^f/f×CD11c-Cre (Conway et al., 2013b), and Atg5^f/f×CD11c-Cre (Conway et al., 2013a) mice. BMDCs were differentiated from bone marrow for seven days in antibiotic-free DMEM supplemented with 20% FBS and GM-CSF (2% conditioned TOPO medium). In parallel, L. monocytogenes strain EGDe (ATCC BA-679) was cultured overnight in BHI medium, washed in PBS, and cocultured with BMDCs at an MOI of approximately 100:1 for 30 minutes. Tissue culture dishes containing cocultures were washed in PBS and cultured for an additional 10 minutes or 6 hours in DC media containing gentamicin (30 μg/ml). BMDCs were then harvested by scraping, washed in PBS, and lysed in 1% NP-40, 4 mM MgCl2, 6 μg/ml DNaseI from bovine pancreas (Sigma Aldrich), and PBS pH 7.4 at 250×10^6 cells/4 ml lysis buffer/sample. Clarified lysates were subjected to immunoprecipitation overnight at 4° C. with gentle rotation. Immunoprecipitation was performed with NHS Mag Sepharose (GE Healthcare) covalently coupled to anti-H2-IA (clone Y3P (Janeway et al., 1984)). Each sample contained 130 μl packed beads and approximately 650 μg antibody. Beads were then washed twice in PBS containing 0.1% NP-40 and three times in PBS.
MHC-peptide elution and desalting. Peptides were eluted from MHC complexes and desalted on in-house-built Empore C18 StageTips (3M, 2315) as described previously (Rappsilber et al., 2007). Sample loading, washes, and elution were performed on a tabletop centrifuge at a maximum speed of 2,000-3,500×g. Briefly, StageTips were equilibrated with 2×100 μL washes of methanol, 2×50 μL washes of 50% acetonitrile/0.1% formic acid (FA), and 2×100 μL washes of 1% FA. In a tube, the dried beads from MHC-associated peptide IPs were thawed at 4° C., reconstituted in 50 μL 3% ACN/5% FA, and loaded onto StageTips. The beads were washed with 50 μL 1% FA, and peptides were further eluted using two rounds of 5-minute incubations in 10% acetic acid. The combined wash and elution volumes were combined and loaded onto StageTips. The tubes containing the IP beads were washed again with 50 μL 1% FA, and this volume was also loaded onto StageTips. Peptides were washed twice on the StageTip with 100 μL 1% FA. Peptides were eluted using a step gradient of 20 μL 20% ACN/0.1% FA, 20 μL 40% ACN/0.1% FA, and 20 μL 60% ACN/0.1% FA. Step elutions were combined and dried to completion.
iTRAQ 4-plex labeling for quantitative proteomics.

Substance	Peptidomics Hit
15028 (ERWNEKYAQAYPNVSAKID; Listeria sp) [compound 15028]	..........[…]..........
15029 (ETQHYYGLPVADSAIDRGPL; Listeria sp) [compound 15029]	...APGQETQHYYGLPVADSAIDR.........
15030 (FRYVFDTAKATAASSYPGS; Listeria sp) [compound 15030]	......ADFRYVFDTAKATAASSYPG.......
15031 (DTTVKFTLPTVAPAFENTIKT; Listeria sp) [compound 15031]	AVDDTTVKFTLPTVAPAFENT
15032 (EKVVATPVSNVSTSSATSS; Listeria sp) [compound 15032]	GTKEKVVATPVSNVSTSSA
15033 (INQAYTGSTALSDGLNKM; Listeria sp) [compound 15033]	GGINQAYTGSTALSDGLN
15034 (GIAVTAFAAPTIASASTVVV; Listeria sp) [compound 15034]	IAVTAFAAPTIASA
15036 (TVRAKSKTYPVYINEFALED; Listeria sp) [compound 15036]	TVRAKSKTYPVYInEFALE

Same assay, conditions: MHCII-bound peptide abundance, BMDCs, 6 hr versus 10 min after Listeria exposure

Substance	logFC (Log2 Fold Change Listeria 6 hr versus 10 min)
14980 (WNEKYAQAYPNVS; Listeria sp) [compound 14980]	1.377
14981 (WNEKYAQAYPNVSAKI; Listeria sp) [compound 14981]	1.202
14982 (VERWNEKYAQAYPNVS; Listeria sp) [compound 14982]	0.2849
14983 (ERWNEKYAQAYPNVS; Listeria sp) [compound 14983]	0.2069
14985 (VWTKPNKIEGAQKISALSTY; Listeria sp) [compound 14985]	-0.2625
14995 (EVEDLNQPLAAHVNYE; Listeria sp) [compound 14995]	0.1526
15016 (SNVNHVLDIGYGGGSNVKN; Listeria sp) [compound 15016]	0.227
15017 (EVVYHNMKQDLE; Listeria sp) [compound 15017]	-0.1708
15018 (DGLKAGEHFFAAGKDWPDAIYANGDEVAAGVMYH; Listeria sp) [compound 15018]	-0.4271
15019 (EILLQKPNGERLTSFITL; Listeria sp) [compound 15019]	-0.04842
15020 (GLLMAKKYKMNLTIVIVN; Listeria sp) [compound 15020]	-0.6291
15022 (MNRVMLPLQQMGAKMHGK; Listeria sp) [compound 15022]	0.1447
15023 (VMASDYTRGLSIRAIELVFENL; Listeria sp) [compound 15023]	0.2507
15024 (YMEKHSVSRLVGAPP; Listeria sp) [compound 15024]	-0.4422
15025 (KTASGIVLPDSAKEKPQSGKIVAVGSGRVLD; Listeria sp) [compound 15025]	-0.4963
15026 (ESVYLSAQKENPRLFAKIETF; Listeria sp) [compound 15026]	0.5951
15027 (RDNYLFQLYEATGTPIHPMSPF; Listeria sp) [compound 15027]	-0.05049
